Substrate in data set [1]: NC(=O)C1=CN([C@@H]2O[C@H](COP(=O)(O)OP(=O)(O)OC[C@H]3O[C@@H](n4cnc5c(N)ncnc54)[C@H](OP(=O)(O)O)[C@@H]3O)[C@@H](O)[C@H]2O)C=CC1
Description: purified protein. Type of data set: biochemical, Mangifera indica. Conditions: 100 μM cyanidin, 100 mM citrate buffer pH 4.0, 30 °C, 20 min, substrate inhibition at 1.25-3.75 mM, varied: cofactor.

Substrate in data set [2]: Oc1cc(O)c2cc(O)c(-c3ccc(O)c(O)c3)[o+]c2c1
Description: purified protein. In kind it is biochemical, Mangifera indica. The settings on record: 1 mM NADPH, 20 min.

Where [3] appears, read: 100 mM citrate buffer pH 4.0, 30 °C.
[4] abbreviates: 100 mM phosphate buffer pH 3.0, 30 °C.

B1: MiANR1-3 (Mangifera indica; S2A) (protein)
chain: MAAQQTAKNTACVVGGTGFVASLLIKLLLQKGYSVSTTVRDPDNQQKISHLLSLQELGELKIFGADLTDEGSFDAPIAGSDIVFHVATPVNFASEDPENDMIKPAIQGVENVLKACAKAKTVKRVILTSSAAAVTINNQDGTGLVMDEKHWTDVEFLSSAKPPTWGYPVSKTLAERHAWKFAQENNIDLITIIPSLMAGPSLTPDIPSSLNLAMSLISGNEFLTNALKGMQMLSGSISIAHVEDVCRAHIFLAEKESASGRYICCAVNTSVPELAKFLHQRYPQYKVPTDFGDFPSKPKLLISSGKLISEGFSFKFGIEEIYDQTVEYFKAKGVL
notes: S2A from the NcoI site; C-terminal His6 tag (pET28b), E. coli BL21(DE3) pLysS, Ni-NTA purified; about 37 kDa on SDS-PAGE
Take B1: in the data set “purified protein [1]”, the Michaelis constant (Km) is 18.98 ± 1.18 µM and the Vmax came to 0.019 µmol/min/mg. For the same protein, in “purified protein [2]” (setting [3]), the Km was determined as 80.43 ± 5.85 µM and the catalytic efficiency (kcat/Km) is 401000 M⁻¹ s⁻¹.

B2: MiANR1-2 (Mangifera indica; S2A) (protein)
chain: MAAQQTAKNTACVVGGTGFVASLLIKLLLQKGYSVSTTVRDPDNQQKISHLLSLQELGELKIFGADLTDEGSFDAPIAGSDIVFHVATPVNFASEDPENDMIKPAIQGVENVLKACAKAKTVKRVILTSSAAAVTINNQDGTGLVMDEKHWTDVEFLSSAKPPTWGYPASKTLAERHAWKFAQENNIDLITIIPSLMAGPSLTPDIPSSLNLAMSLISGNEFLTNALKGMQMLSGSISIAHVEDVCRAHIFLAEKESASGRYICCAVNTSVPELAKFLQQRYPQYKVPTDFGDFPSKPKLLISSEKLISEGFSFKFGIEEIYDQTVEYFKAKGVL
notes: as for B1
For the protein B2, in the data set “purified protein [1]”, the Michaelis-Menten constant (Km) stood at 18.14 ± 1.4 µM and the Vmax worked out at 0.0227 µmol/min/mg. Besides, in the data set “purified protein [2]” (setting [3]), the Km came to 116.4 ± 4.42 µM and the specificity constant (kcat/Km) was 363000 M⁻¹ s⁻¹.

B3: MiANR1-1 (Mangifera indica; S2A) (protein)
chain: MAAQQTAKNTACVVGGTGFVASLLIKLLLQKGYSVSTTVRDPGNQKKISHLLSLQELGELKIFGADLTDEGSFDAPIAGSDIVFHVATPVNFASEDPENDMIKPAIQGVGNVLKACAKAKTVKRVILTSSAAAVTINNQDGTGLVMDEKHWTDVEFLSSAKPPTWGYPASKTLAERHAWKFAQDNNIDLITIIPSLMAGPSLTPDIPSSLNLAMSLISGNEFLTNALKGMQMLSGSISIAHVEDVCRAHIFLAEKESASGRYICCAVNTSVPELAKFLQQRYPQYKVPTDFGDFPSKPKLLISSEKLISEGFSFKFGIEEIYDQTVEYFKAKGVL
notes: as for B1
For B3, in the data set “purified protein [2]” (setting [4]), the Michaelis constant (Km) amounted to 48.32 ± 3.45 µM and the kcat/Km worked out at 330000 M⁻¹ s⁻¹.

Source of the values: publication PMC6278290, “Biochemical and Functional Characterization of Anthocyanidin Reductase (ANR) from Mangifera indica L” (Molecules, 2018).
